PMC2807033 (2009)
No end group written: not given here. *: point of attachment. Biotin = O=C1N[C@H]2[C@H](CS[C@H]2CCCCC(=O)*)N1

Target: E. coli replicative helicase DnaB, purified (E. coli, UniProt P0ACB0 1-471)
Test: SPR

Chain of E. coli replicative helicase DnaB, purified (P0ACB0 whole entry): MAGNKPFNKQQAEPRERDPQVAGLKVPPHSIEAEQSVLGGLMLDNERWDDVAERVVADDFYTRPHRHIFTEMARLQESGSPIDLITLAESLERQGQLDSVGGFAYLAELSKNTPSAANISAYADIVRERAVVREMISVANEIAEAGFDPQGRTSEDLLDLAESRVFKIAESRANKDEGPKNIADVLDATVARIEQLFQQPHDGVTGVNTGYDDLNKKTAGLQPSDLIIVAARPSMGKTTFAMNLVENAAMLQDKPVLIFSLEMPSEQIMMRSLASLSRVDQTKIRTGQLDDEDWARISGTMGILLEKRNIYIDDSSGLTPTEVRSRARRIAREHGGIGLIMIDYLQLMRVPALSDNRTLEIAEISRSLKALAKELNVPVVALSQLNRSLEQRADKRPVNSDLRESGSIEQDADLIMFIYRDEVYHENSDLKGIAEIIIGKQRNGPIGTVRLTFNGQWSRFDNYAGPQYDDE

For Biotin-EQERKVVSAEERMQKGQSHLANLKAMMAAKRGK [C33^Rep peptide (synthetic peptide corresponding to the C-terminal 33 residues of Rep)], the Kd was 44 nM.
